Measurements: patent US20030175270

Biological target: JAK2 immunoprecipitated from BMMC lysates (tyrosine-phosphorylated), Q62120
Sequence (Q62120 whole entry): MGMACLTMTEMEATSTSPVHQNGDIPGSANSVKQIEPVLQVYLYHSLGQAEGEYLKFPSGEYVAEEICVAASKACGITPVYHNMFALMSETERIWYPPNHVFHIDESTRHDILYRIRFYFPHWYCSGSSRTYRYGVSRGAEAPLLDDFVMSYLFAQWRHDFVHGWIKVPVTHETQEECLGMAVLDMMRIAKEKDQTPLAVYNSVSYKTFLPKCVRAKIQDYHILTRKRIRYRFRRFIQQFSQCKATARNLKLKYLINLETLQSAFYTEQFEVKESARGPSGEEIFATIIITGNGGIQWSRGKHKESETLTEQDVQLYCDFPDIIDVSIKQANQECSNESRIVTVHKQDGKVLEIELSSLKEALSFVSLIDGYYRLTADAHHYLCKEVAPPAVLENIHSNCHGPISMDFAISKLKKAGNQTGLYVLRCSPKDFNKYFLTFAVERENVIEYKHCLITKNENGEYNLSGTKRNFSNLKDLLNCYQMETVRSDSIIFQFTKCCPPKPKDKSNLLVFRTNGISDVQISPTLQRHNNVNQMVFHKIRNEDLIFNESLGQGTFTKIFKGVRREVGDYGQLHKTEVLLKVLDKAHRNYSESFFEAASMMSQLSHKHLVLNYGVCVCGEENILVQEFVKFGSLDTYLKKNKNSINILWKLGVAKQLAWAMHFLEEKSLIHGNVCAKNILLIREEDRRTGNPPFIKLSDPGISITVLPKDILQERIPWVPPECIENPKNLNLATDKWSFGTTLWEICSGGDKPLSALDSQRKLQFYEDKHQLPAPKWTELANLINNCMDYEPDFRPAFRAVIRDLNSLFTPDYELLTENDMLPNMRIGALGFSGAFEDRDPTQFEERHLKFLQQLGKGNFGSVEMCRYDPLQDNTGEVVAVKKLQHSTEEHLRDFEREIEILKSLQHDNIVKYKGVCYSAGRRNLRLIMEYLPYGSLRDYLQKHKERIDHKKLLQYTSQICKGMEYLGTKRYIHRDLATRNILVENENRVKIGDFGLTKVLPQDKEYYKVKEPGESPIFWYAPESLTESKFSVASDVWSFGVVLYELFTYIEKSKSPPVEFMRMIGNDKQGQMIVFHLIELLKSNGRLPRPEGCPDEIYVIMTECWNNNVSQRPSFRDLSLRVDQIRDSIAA

B1: bacterial lambda PTPase (protein)
chain: MRYYEKIDGSKYRNIWVVGDLHGCYTNLMNKLDTIGFDNKKDLLISVGDLVDRGAENVECLELITFPWFRAVRGNHEQMMIDGLSERGNVNHWLLNGGGWFFNLDYDKEILAKALAHKADELPLIIELVSKDKKYVICHADYPFDEYEFGKPVDHQQVIWNRERISNSQNGIVKEIKGADTFIFGHTPAVKPLKFANQMYIDTGAVFCGNLTLIQVQGEGA
tyrosine dephosphorylation in vitro (phosphatase assay): the human non-receptor tyrosine PTPase TC-PTP and the bacterial lambda PTPase did not dephosphorylate JAK2 in vitro

B2: human non-receptor tyrosine PTPase TC-PTP (protein)
chain: MPTTIEREFEELDTQRRWQPLYLEIRNESHDYPHRVAKFPENRNRNRYRDVSPYDHSRVKLQNAENDYINASLVDIEEAQRSYILTQGPLPNTCCHFWLMVWQQKTKAVVMLNRIVEKESVKCAQYWPTDDQEMLFKETGFSVKLLSEDVKSYYTVHLLQLENINSGETRTISHFHYTTWPDFGVPESPASFLNFLFKVRESGSLNPDHGPAVIHCSAGIGRSGTFSLVDTCLVLMEKGDDINIKQVLLNMRKYRMGLIQTPDQLRFSYMAIIEGAKCIKGDSSIQKRWKELSKEDLSPAFDHSPNKIMTEKYNGNR
tyrosine dephosphorylation in vitro (phosphatase assay): the human non-receptor tyrosine PTPase TC-PTP and the bacterial lambda PTPase did not dephosphorylate JAK2 in vitro
